Molecular target: T1, human c-Met/Fc fusion protein (R&D Systems) (human, UniProt P08581 25-932)
T1 construct: Purchased reagent coated on ELISA plates; also called human c-Met/Fc protein; not shown: Fc part of the purchased fusion
Assay: ELISA, hybridoma culture on plate-coated human c-Met/Fc fusion protein (2 ug/mL)
Description: Human c-Met/Fc fusion protein was seeded in an amount of 50 μL (2 μg/mL)/well to microtiter plates and allowed to adhere to the surface of each well. The antibody that remained unbound was removed by washing.
The hybridoma cell culture obtained in Reference Example 1.1.2 was added in an amount of 50 μL to each well of the plates and incubated for 1 hour. The cells remaining unreacted were washed out with a sufficient amount of Tris-buffered saline and Tween 20 (TBST). Goat anti-mouse IgG-horseradish peroxidase (HRP) was added to the plates and incubated for 1 hour at room temperature. The plates were washed with a sufficient amount of TBST, followed by reacting the peroxidase with a substrate (OPD). Absorbance at 450 nm was measured on an ELISA reader.

T1 sequence (P08581 25-932): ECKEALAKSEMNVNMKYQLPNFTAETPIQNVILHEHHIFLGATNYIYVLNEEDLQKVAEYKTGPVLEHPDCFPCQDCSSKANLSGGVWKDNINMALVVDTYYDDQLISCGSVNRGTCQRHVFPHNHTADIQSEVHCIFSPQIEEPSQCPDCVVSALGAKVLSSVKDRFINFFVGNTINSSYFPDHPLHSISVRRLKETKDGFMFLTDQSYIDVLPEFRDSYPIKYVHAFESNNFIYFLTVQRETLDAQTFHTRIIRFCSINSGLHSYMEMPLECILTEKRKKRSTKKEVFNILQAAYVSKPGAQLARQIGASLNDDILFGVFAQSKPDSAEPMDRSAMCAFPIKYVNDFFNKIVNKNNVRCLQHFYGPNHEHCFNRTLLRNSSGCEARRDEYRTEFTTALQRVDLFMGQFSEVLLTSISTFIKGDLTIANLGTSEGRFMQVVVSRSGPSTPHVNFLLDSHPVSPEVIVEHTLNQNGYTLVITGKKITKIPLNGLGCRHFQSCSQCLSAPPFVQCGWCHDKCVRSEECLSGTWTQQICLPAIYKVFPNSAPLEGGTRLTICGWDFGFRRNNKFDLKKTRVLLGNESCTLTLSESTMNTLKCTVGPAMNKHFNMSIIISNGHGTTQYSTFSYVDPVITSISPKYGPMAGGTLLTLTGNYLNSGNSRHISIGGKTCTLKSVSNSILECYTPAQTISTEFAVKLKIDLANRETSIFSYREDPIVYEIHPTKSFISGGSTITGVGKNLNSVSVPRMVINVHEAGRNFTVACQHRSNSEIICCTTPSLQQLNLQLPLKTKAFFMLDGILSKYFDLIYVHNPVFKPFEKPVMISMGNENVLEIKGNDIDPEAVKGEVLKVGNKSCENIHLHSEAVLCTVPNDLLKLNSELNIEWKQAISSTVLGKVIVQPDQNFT

B1: AbF46, a mouse antibody to c-Met (antibody, V domains shown)
VH: EVKLVESGGGLVQPGGSLRLSCATSGFTFTDYYMSWVRQPPGKALEWLGFIRNKANGYTTEYSASVKGRFTISRDNSQSILYLQMDTLRAEDSATYYCARDNWFAYWGQGTLVTVSA
VL: DILMTQSPSSLTVSAGEKVTMSCKSSQSLLASGNQNNYLAWHQQKPGRSPKMLIIWASTRVSGVPDRFIGSGSGTDFTLTINSVQAEDLAVYYCQQSYSAPLTFGAGTKLELK
notes: Mouse monoclonal antibody from the single hybridoma clone chosen by ELISA; In the screening assay it was present as hybridoma culture supernatant; also called monoclonal antibody of hybridoma KCLRF-BP-00220
B1: binds.
